# Earlier results in publication PMC10653114.
# Assays:
# Lys77 = Lys77 (UniProt position 78, MARKMKDTDSE); conditions: 298 K; Conc. 0.10 (unit not given; K+/Cl–); apo (Ca2+-free) calmodulin, per the Supplemental Methods, which build an apo model
# Lys30 = Lys30 (UniProt position 31, GTITTKELGTV); conditions: 298 K; Conc. 0.10 (unit not given; K+/Cl–); apo (Ca2+-free) calmodulin, per the Supplemental Methods, which build an apo model
# Lys21 = Lys21 (UniProt position 22, FSLFDKDGDGT); conditions: 298 K; Conc. 0.10 (unit not given; K+/Cl–); apo (Ca2+-free) calmodulin, per the Supplemental Methods, which build an apo model
# Lys13 [1] = target: Lys13 (UniProt position 14, QIAEFKEAFSL); conditions: 298 K; Conc. 0.10 (unit not given; K+/Cl–); apo (Ca2+-free) calmodulin, per the Supplemental Methods, which build an apo model
# Lys75 = Lys75 (UniProt position 76, TMMARKMKDTD); conditions: 298 K; Conc. 0.10 (unit not given; K+/Cl–); apo (Ca2+-free) calmodulin, per the Supplemental Methods, which build an apo model
# Lys94 = Lys94 (UniProt position 95, FRVFDKDGNGY); conditions: 298 K; Conc. 0.10 (unit not given; K+/Cl–); apo (Ca2+-free) calmodulin, per the Supplemental Methods, which build an apo model
# Lys72 = Lys72 (UniProt position 312, KRMAEKIIEIL); test: NMR (per the title of cited ref 99); conditions: 298 K; Conc. 0.10 (unit not given; K+/Cl–)
# Lys41 = Lys41 (UniProt position 281, ALGYAKAINAL); test: NMR (per the title of cited ref 99); conditions: 298 K; Conc. 0.10 (unit not given; K+/Cl–)
# Lys67 = Lys67 (UniProt position 307, IPGIGKRMAEK); test: NMR (per the title of cited ref 99); conditions: 298 K; Conc. 0.10 (unit not given; K+/Cl–)
# Lys19 = Lys19 (UniProt position 259, LHITEKLEVLA); test: NMR (per the title of cited ref 99); conditions: 298 K; Conc. 0.10 (unit not given; K+/Cl–)
# Lys47 = Lys47 (UniProt position 287, AINALKSFHKP); test: NMR (per the title of cited ref 99); conditions: 298 K; Conc. 0.10 (unit not given; K+/Cl–)
# Lys84 = Lys84 (UniProt position 324, SGHLRKLDHIS); test: NMR (per the title of cited ref 99); conditions: 298 K; Conc. 0.10 (unit not given; K+/Cl–)
# Lys8 = Lys8 (UniProt position 248, QPSSQKATNHN); test: NMR (per the title of cited ref 99); conditions: 298 K; Conc. 0.10 (unit not given; K+/Cl–)
# Lys25 = Lys25 (UniProt position 265, LEVLAKAYSVQ); test: NMR (per the title of cited ref 99); conditions: 298 K; Conc. 0.10 (unit not given; K+/Cl–)
# Lys51 = Lys51 (UniProt position 291, LKSFHKPVTSY); test: NMR (per the title of cited ref 99); conditions: 298 K; Conc. 0.10 (unit not given; K+/Cl–)
# Lys33 = Lys33 (UniProt position 273, SVQGDKWRALG); test: NMR (per the title of cited ref 99); conditions: 298 K; Conc. 0.10 (unit not given; K+/Cl–)
# Asp61 [2] = target: Asp61 (UniProt position 435, STVTQDGSAVT); conditions: 298 K; Conc. 0.10 (unit not given; K+/Cl–)
# Asp61 [3] = target: Asp61 (UniProt position 435, STVTQDGSAVH); conditions: 298 K; Conc. 0.10 (unit not given; K+/Cl–)
# Asp108 = Asp108 (UniProt position 108, LWQRLDAALGQ); test: NMR (per the title of cited ref 95); conditions: 300 K; Conc. 0.10 (unit not given; Na+/Cl–)
# Glu32 = Glu32 (UniProt position 32, RYRGREKTFSA); test: NMR (per the title of cited ref 95); conditions: 300 K; Conc. 0.10 (unit not given; Na+/Cl–)
# Glu6 [4] = target: Glu6 (UniProt position 6, MLKQVEIFTDG); test: NMR (per the title of cited ref 95); conditions: 300 K; Conc. 0.10 (unit not given; Na+/Cl–)
# Asp10 = Asp10 (UniProt position 10, VEIFTDGSCLG); test: NMR (per the title of cited ref 95); conditions: 300 K; Conc. 0.10 (unit not given; Na+/Cl–)
# Glu154 = Glu154 (UniProt position 154, TGYQVEV----); test: NMR (per the title of cited ref 95); conditions: 300 K; Conc. 0.10 (unit not given; Na+/Cl–)
# Glu48 = Glu48 (UniProt position 48, TNNRMELMAAI); test: NMR (per the title of cited ref 95); conditions: 300 K; Conc. 0.10 (unit not given; Na+/Cl–)
# Glu61 = Glu61 (UniProt position 61, LEALKEHCEVI); test: NMR (per the title of cited ref 95); conditions: 300 K; Conc. 0.10 (unit not given; Na+/Cl–)
# Glu119 = Glu119 (UniProt position 119, HQIKWEWVKGH); test: NMR (per the title of cited ref 95); conditions: 300 K; Conc. 0.10 (unit not given; Na+/Cl–)
# Glu135 = Glu135 (UniProt position 135, NERCDELARAA); test: NMR (per the title of cited ref 95); conditions: 300 K; Conc. 0.10 (unit not given; Na+/Cl–)
# Glu131 = Glu131 (UniProt position 131, GHPENERCDEL); test: NMR (per the title of cited ref 95); conditions: 300 K; Conc. 0.10 (unit not given; Na+/Cl–)
# Glu64 = Glu64 (UniProt position 64, LKEHCEVILST); test: NMR (per the title of cited ref 95); conditions: 300 K; Conc. 0.10 (unit not given; Na+/Cl–)
# Glu147 = Glu147 (UniProt position 147, MNPTLEDTGYQ); test: NMR (per the title of cited ref 95); conditions: 300 K; Conc. 0.10 (unit not given; Na+/Cl–)
# Glu57 = Glu57 (UniProt position 57, AIVALEALKEH); test: NMR (per the title of cited ref 95); conditions: 300 K; Conc. 0.10 (unit not given; Na+/Cl–)
# Asp134 = Asp134 (UniProt position 134, ENERCDELARA); test: NMR (per the title of cited ref 95); conditions: 300 K; Conc. 0.10 (unit not given; Na+/Cl–)
# Asp94 = Asp94 (UniProt position 94, GWKTADKKPVK); test: NMR (per the title of cited ref 95); conditions: 300 K; Conc. 0.10 (unit not given; Na+/Cl–)
# Glu129 = Glu129 (UniProt position 129, HAGHPENERCD); test: NMR (per the title of cited ref 95); conditions: 300 K; Conc. 0.10 (unit not given; Na+/Cl–)
# Asp70 = Asp70 (UniProt position 70, VILSTDSQYVR); test: NMR (per the title of cited ref 95); conditions: 300 K; Conc. 0.10 (unit not given; Na+/Cl–)
# Glu98 = Glu98 (UniProt position 98, NKEKLEATINE); conditions: 298 K; Conc. 0.00 (unit not given; Na+/Cl–)
# Glu70 = Glu70 (UniProt position 70, VASECEVKCMP); conditions: 298 K; Conc. 0.00 (unit not given; Na+/Cl–)
# Glu68 = Glu68 (UniProt position 68, QDVASECEVKC); conditions: 298 K; Conc. 0.00 (unit not given; Na+/Cl–)
# Glu88 = Glu88 (UniProt position 88, GQKVGEFSGAN); conditions: 298 K; Conc. 0.00 (unit not given; Na+/Cl–)
# Glu47 = Glu47 (UniProt position 47, FHSLSEKYSNV); conditions: 298 K; Conc. 0.00 (unit not given; Na+/Cl–)
# Asp26 = Asp26 (UniProt position 26, KLVVVDFSATW); conditions: 298 K; Conc. 0.00 (unit not given; Na+/Cl–)
# Glu6 [5] = target: Glu6 (UniProt position 6, MVKQIESKTAF); conditions: 298 K; Conc. 0.00 (unit not given; Na+/Cl–)
# Glu95 = Glu95 (UniProt position 95, SGANKEKLEAT); conditions: 298 K; Conc. 0.00 (unit not given; Na+/Cl–)
# Glu13 = Glu13 (UniProt position 13, KTAFQEALDAA); conditions: 298 K; Conc. 0.00 (unit not given; Na+/Cl–)
# Glu103 = Glu103 (UniProt position 103, EATINELV---); conditions: 298 K; Conc. 0.00 (unit not given; Na+/Cl–)
# Glu56 = Glu56 (UniProt position 56, NVIFLEVDVDD); conditions: 298 K; Conc. 0.00 (unit not given; Na+/Cl–)
# Asp64 = Asp64 (UniProt position 64, VDDCQDVASEC); conditions: 298 K; Conc. 0.00 (unit not given; Na+/Cl–)
# Asp20 = Asp20 (UniProt position 20, LDAAGDKLVVV); conditions: 298 K; Conc. 0.00 (unit not given; Na+/Cl–)
# Asp16 = Asp16 (UniProt position 16, FQEALDAAGDK); conditions: 298 K; Conc. 0.00 (unit not given; Na+/Cl–)
# Lys34 = Lys34 (UniProt position 163, KTYGNKCNFCN); conditions: 298 K; Conc. 0.015 (unit not given; K+/Cl–)
# Lys55 = Lys55 (UniProt position 184, LSHFGKC----); conditions: 298 K; Conc. 0.015 (unit not given; K+/Cl–)
# Asp27 = Asp27 (UniProt position 156, PLCGSDNKTYG); conditions: 298 K; Conc. 0.015 (unit not given; K+/Cl–)
# Asp7 = Asp7 (UniProt position 136, AAVSVDCSEYP); conditions: 298 K; Conc. 0.015 (unit not given; K+/Cl–)
# Lys13 [6] = target: Lys13 (UniProt position 142, CSEYPKPACTL); conditions: 298 K; Conc. 0.015 (unit not given; K+/Cl–)
# Lys29 = Lys29 (UniProt position 158, CGSDNKTYGNK); conditions: 298 K; Conc. 0.015 (unit not given; K+/Cl–)
substance,measurement,setting,value
Calmodulin (apo) (Homo sapiens (as modelled in the article; source species of the measured sample not stated)),pKa,Lys77,10.55 ± 0.10
same,pKa,Lys30,10.55 ± 0.10
same,pKa,Lys21,10.55 ± 0.10
same,pKa,Lys13 [1],10.23 ± 0.10
same,pKa,Lys75,9.87 ± 0.10
same,pKa,Lys94,10.55 ± 0.10
"DNA polymerase lambda, lyase (8 kDa) domain (Homo sapiens)",pKa,Lys72,9.58 ± 0.14
same,pKa,Lys41,10.01 ± 0.14
same,pKa,Lys67,10.16 ± 0.14
same,pKa,Lys19,10.07 ± 0.14
same,pKa,Lys47,10.65 ± 0.14
same,pKa,Lys84,10.27 ± 0.14
same,pKa,Lys8,10.27 ± 0.14
same,pKa,Lys25,10.23 ± 0.14
same,pKa,Lys51,10.26 ± 0.14
same,pKa,Lys33,10.07 ± 0.14
"Highly charge-depleted protein (PDB 6QFS), S61D variant (Cellulomonas fimi (parent domain; not stated in the article); S61D (on the 6QFS charge-depleted background; background substitutions not stated))",pKa,Asp61 [2],4.15 ± 0.01
"Highly charge-depleted protein (PDB 6QFS), S61D/T66H variant (Cellulomonas fimi (parent domain; not stated in the article); S61D;T66H (on the 6QFS charge-depleted background; background substitutions not stated))",pKa,Asp61 [3],4.10 ± 0.02
Ribonuclease HI (Escherichia coli),pKa,Asp108,3.2
same,pKa,Glu32,3.6
same,pKa,Glu6 [4],4.5
same,pKa,Asp10,6.1
same,pKa,Glu154,4.4
same,pKa,Glu48,4.4
same,pKa,Glu61,3.9
same,pKa,Glu119,4.1
same,pKa,Glu135,4.3
same,pKa,Glu131,4.3
same,pKa,Glu64,4.4
same,pKa,Glu147,4.2
same,pKa,Glu57,3.2
same,pKa,Asp134,4.1
same,pKa,Asp94,3.2
same,pKa,Glu129,3.6
same,pKa,Asp70,2.6
"Thioredoxin (human, reduced) (Homo sapiens)",pKa,Glu98,3.9 ± 0.02
same,pKa,Glu70,4.6 ± 0.08
same,pKa,Glu68,4.9 ± 0.07
same,pKa,Glu88,3.7 ± 0.08
same,pKa,Glu47,4.1 ± 0.10
same,pKa,Asp26,9.9 ± 0.10
same,pKa,Glu6 [5],4.8 ± 0.08
same,pKa,Glu95,4.1 ± 0.02
same,pKa,Glu13,4.4 ± 0.07
same,pKa,Glu103,4.4 ± 0.07
same,pKa,Glu56,3.1 ± 0.10
same,pKa,Asp64,3.2 ± 0.06
same,pKa,Asp20,3.8 ± 0.05
same,pKa,Asp16,4.1 ± 0.10
Turkey ovomucoid third domain (OMTKY3) (Meleagris gallopavo),pKa,Lys34,10.13 ± 0.05
same,pKa,Lys55,11.10 ± 0.06
same,pKa,Asp27,2.56 ± 0.03
same,pKa,Asp7,2.95 ± 0.03
same,pKa,Lys13 [6],9.86 ± 0.03
same,pKa,Lys29,11.12 ± 0.02
